# Measurements published in article PMC9973045, “The Drug-Induced Interface That Drives HIV-1 Integrase Hypermultimerization and Loss of Function” (mBio, 2023).
# Target: the molecule itself
# Experiment: SEC-MALS; SEC-MALLS of isolated CTDs; Superdex-75 Increase 10/300; 0.5 M NaCl, 25 mM Tris-HCl pH 7.5, 3 mM NaN3, 0.5 mM TCEP; 25°C; loaded at 8, 4, 2, 1 or 0.5 mg/mL; dimer to monomers
protein,measurement,value
"isolated HIV-1 IN CTD (wild type), IN residues 220 to 270 (domain or fragment, HIV-1 integrase (IN) carboxyl-terminal domain, residues 220 to 270, lacking the C-terminal tail; numbers count on: the mature integrase (IN residues); A prior drug-free HIV-1 IN CTD structure is cited as PDB 6T6E; also called carboxyl-terminal domain; source: E. coli BL21-CodonPlus (DE3), purified (Ni-NTA, HiTrap SP, SEC); not shown: His6-Sumo, N-terminal, cleaved) IQNFRVYYRDSRDPVWKGPAKLLWKGEGAVVIQDNSDIKVVPRRKAKIIRD",stoichiometry N,2
